Measured values reported in paper PMC12808597, “Spatially diffuse cAMP signalling with oppositely biased GLP-1 receptor agonists in β-cells despite differences in receptor localisation” (Molecular Metabolism, 2025).

Experiments:
[1] = target: mouse glucagon-like peptide-1 receptor, untagged (mouse) (UniProt O35659); experiment: imaging of fluorescent ligand bound to cells; washout: TMR-agonist detected at 60 min in AD293 cells transiently expressing untagged GLP-1R, with or without 20 uM exendin(9-39) applied 10 min after agonist
[2] = target: human glucagon-like peptide-1 receptor, untagged (human) (UniProt P43220); experiment: imaging of fluorescent ligand bound to cells; Cy5- or TMR-agonist over a concentration range, 30 min stimulation; AD293 cells expressing untagged hGLP-1R or mGLP-1R, or wild-type INS-1 832/3 cells (non-specific binding from INS-1 832/3 Glp1r-/- cells subtracted); 'functional affinities'
[3] = target: mouse glucagon-like peptide-1 receptor, untagged (mouse) (UniProt O35659); experiment: as above
[4] = target: GLP-1R endogenous in wild-type mouse pancreatic islets (mouse (endogenous in C57Bl/6J islets)) (UniProt O35659); experiment: imaging of fluorescent ligand in intact islets; wild-type mouse islets, 1 nM TMR-agonist, continuous 60 min or 10 min then exendin(9-39) washout
Chain of GLP-1R endogenous in wild-type mouse pancreatic islets (mouse (endogenous in C57Bl/6J islets)) (O35659 22-463): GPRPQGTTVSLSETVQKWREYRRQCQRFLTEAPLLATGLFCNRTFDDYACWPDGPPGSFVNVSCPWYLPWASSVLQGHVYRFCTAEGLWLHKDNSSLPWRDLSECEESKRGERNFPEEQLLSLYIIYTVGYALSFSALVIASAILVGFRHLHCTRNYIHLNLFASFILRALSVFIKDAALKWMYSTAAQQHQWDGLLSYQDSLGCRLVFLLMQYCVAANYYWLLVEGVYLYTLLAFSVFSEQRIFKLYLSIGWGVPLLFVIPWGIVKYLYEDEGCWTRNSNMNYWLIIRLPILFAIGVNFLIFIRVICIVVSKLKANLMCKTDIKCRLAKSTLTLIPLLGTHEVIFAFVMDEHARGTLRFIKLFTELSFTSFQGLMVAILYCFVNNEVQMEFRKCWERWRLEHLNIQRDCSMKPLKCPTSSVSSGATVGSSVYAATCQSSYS

Chain of mouse glucagon-like peptide-1 receptor, untagged (mouse) (O35659 22-463): as above
Chain of human glucagon-like peptide-1 receptor, untagged (human) (P43220 24-463): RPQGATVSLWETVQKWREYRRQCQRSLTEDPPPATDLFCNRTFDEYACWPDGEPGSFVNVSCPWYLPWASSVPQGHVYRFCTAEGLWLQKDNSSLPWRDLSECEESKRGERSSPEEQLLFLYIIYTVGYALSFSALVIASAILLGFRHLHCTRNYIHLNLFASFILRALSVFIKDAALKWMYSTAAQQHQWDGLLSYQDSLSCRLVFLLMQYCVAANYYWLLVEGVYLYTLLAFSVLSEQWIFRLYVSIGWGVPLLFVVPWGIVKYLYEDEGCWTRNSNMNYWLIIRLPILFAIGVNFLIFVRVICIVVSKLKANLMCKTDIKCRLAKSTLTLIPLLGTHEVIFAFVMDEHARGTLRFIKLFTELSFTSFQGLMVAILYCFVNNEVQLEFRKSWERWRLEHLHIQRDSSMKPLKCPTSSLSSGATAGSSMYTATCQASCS

Substance	percent reduction of total ExD3-TMR binding by washout with 20 uM exendin(9-39) [1]	fold lower affinity than the Cy5 equivalent [2]	fold lower affinity than the Cy5 equivalent [3]	total ligand bound after washout relative to continuously applied ExF1 [4]
exendin(9–39) (peptide)	50%			
exendin-asp3 tetramethylrhodamine conjugate (peptide)		5 fold	3 fold	2 fold
exendin-phe1 tetramethylrhodamine conjugate (peptide)		5 fold	3 fold	
